Results as given in patent publication US20240182408A1, “DRIED PRENCSO COMPOSITION” (HOUSE FOODS GROUP INC., priority 2021, published 2024).

Test: specific activity of LFS
Format: biochemical
Conditions: rLFS used in Examples

B1: rLFS: recombinant lachrymatory factor synthase (E2-3) produced in E. coli, GST tag removed (protein, UniProt P59082 13-169, looked up)
Lachrymatory-factor synthase: DSANGARKWSGKVHALLPNTKPEQAWTLLKDFINLHKVMPSLSVCELVEGEANVVGCVRYVKGIMHPIEEEFWAKEKLVALDNKNMSYSYIFTECFTGYEDYTATMQIVEGPEHKGSRFDWSFQCKYIEGMTESAFTEILQHWATEIGQKIEEVCSA
Question: With B1 as the molecule, how does the specific activity read?
Answer: Its specific activity is 6.0×10^6 area/μg.
